One molecule from publication doi:10.1101/334433 (bioRxiv, 2018) can be followed below.

This experiment has as its target T1, GST-IRF4 (human, UniProt Q15306 1-451).
T1 sequence (looked up): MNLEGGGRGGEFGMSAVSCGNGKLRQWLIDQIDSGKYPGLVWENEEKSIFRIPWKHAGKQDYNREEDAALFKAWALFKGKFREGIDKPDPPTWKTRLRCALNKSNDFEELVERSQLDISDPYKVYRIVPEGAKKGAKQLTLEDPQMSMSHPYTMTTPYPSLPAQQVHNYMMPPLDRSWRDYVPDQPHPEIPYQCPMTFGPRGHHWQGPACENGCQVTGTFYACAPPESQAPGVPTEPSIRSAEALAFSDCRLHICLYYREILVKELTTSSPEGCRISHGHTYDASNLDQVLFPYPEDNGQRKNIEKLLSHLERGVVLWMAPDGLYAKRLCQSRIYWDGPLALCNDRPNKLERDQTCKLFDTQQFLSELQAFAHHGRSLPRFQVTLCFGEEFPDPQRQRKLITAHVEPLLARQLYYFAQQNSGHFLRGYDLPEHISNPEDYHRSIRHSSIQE
Briefly: pull-down.

B1: purified His-Peli1 (enzyme, human, UniProt Q96FA3 1-418, looked up)
chain: MFSPDQENHPSKAPVKYGELIVLGYNGSLPNGDRGRRKSRFALFKRPKANGVKPSTVHIACTPQAAKAISNKDQHSISYTLSRAQTVVVEYTHDSNTDMFQIGRSTESPIDFVVTDTVPGSQSNSDTQSVQSTISRFACRIICERNPPFTARIYAAGFDSSKNIFLGEKAAKWKTSDGQMDGLTTNGVLVMHPRNGFTEDSKPGIWREISVCGNVFSLRETRSAQQRGKMVEIETNQLQDGSLIDLCGATLLWRTAEGLSHTPTVKHLEALRQEINAARPQCPVGFNTLAFPSMKRKDVVDEKQPWVYLNCGHVHGYHNWGNKEERDGKDRECPMCRSVGPYVPLWLGCEAGFYVDAGPPTHAFSPCGHVCSEKTTAYWSQIPLPHGTHTFHAACPFCAHQLAGEQGYIRLIFQGPLD
With B1, the binding result is recorded as “binds”.
